Laboratory results published in paper PMC4705477, “Biochemical Characterization of Nonamer Binding Domain of RAG1 Reveals its Thymine Preference with Respect to Length and Position”.

Target: T1, NBD (nonamer binding domain of RAG1) (mouse, UniProt P15919 384-461)
T1 sequence: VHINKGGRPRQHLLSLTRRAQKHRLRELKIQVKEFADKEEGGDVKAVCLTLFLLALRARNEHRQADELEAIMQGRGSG
Assay: EMSA; 5 mM Ca2+; printed as 'binding constant'; NBD EMSA: 10 mM Tris-HCl pH 7.5, 33 mM KCl, 5 mM CaCl2, 2 mM DTT, 0.1 mg/ml BSA, 6% glycerol, 15 min 30 C; cRAG EMSA: 22.5 mM MOPS-KOH pH 7.0, 20% DMSO, 2.2 mM
Settings: protein: recombinant; tags: N-terminal His6 (pET28a); label: 5' 32P on AKN3; 5' overhang 1 nt at both ends

B1: 23RSS (II, AKN3/AKN4) (dsDNA)
DNA 1: GATCAGCTGACAGTAGCACAGTGGTAGTACTCCACTCTCTGGCTGTACAAAAACCCTGCT
DNA 2: TAGCAGGGTTTTTGTACAGCCAGAGAGTGGAGTACTACCACTGTGCTACTGTCAGCTGAT
Question: How did the Kd turn out when B1 was run?
Answer: Its Kd is 13.9 ± 3.3 µM.
